Source: publication PMC4128009

What was measured:
Assay in all cases: pull-down
[1] = target: His6-Spx L114A (Bacillus subtilis) (UniProt O31602)
[2] = target: His6-Spx R112A (Bacillus subtilis) (UniProt O31602)
[3] = target: His6-Spx F113A (Bacillus subtilis) (UniProt O31602)

Substance: Geobacillus thermodenitrificans YjbH (GtYjbH), without tag (natural protein)
- decrease of YjbH binding compared to the WT [1]: 50%
- decrease of YjbH binding compared to the WT [2]: 80%
- decrease of YjbH binding compared to the WT [3]: 80%
